Laboratory results from article PMC5995894.

System: spDnmt2 (Schizosaccharomyces pombe)
Assay: fluorescence polarization
Details: binding buffer, salt, pH and temperature not given in the material (methods section text missing)

Substance	Kd [µM]	Kd (queuosine at position 34 (queuine enzymatically incorporated by human TGT)) [µM]
G34 tRNAAsp (unmodified)	0.96	
Q34 tRNAAsp		0.67
